Source: patent US20220251194A1 (Merck Sharp & Dohme, published 2022)

What was measured:
[1] = biological target: T1, LAG3-His (66AKO), [VEGF leader]-LAG3_H-[His9G] (human, UniProt P18627 23-450); experiment: SPR sequential antigen injections on captured TsAb; this antigen injected 1st
T1 construct: Expressed with a VEGF leader
T1 sequence (looked up): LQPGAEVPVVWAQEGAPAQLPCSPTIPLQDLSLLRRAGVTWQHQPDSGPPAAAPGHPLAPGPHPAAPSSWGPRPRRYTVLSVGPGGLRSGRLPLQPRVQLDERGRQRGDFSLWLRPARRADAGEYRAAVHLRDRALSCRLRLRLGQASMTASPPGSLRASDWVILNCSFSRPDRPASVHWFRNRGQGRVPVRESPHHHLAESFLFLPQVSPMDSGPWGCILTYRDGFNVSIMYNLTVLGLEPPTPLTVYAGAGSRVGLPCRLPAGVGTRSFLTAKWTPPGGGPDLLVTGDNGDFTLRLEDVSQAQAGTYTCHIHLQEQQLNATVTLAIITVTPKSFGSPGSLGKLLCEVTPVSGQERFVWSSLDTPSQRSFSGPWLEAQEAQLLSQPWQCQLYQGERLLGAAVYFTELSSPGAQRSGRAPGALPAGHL
Protocol: (§1) Sample pre-mixes were injected to cover all six sequential combinations of the three antigens. Injection of pre-mixes in appropriate order (e.g., pre-mix 1->4->7, premix 2->6->7, premix 3->5->7) helped to maintain antigen activities from first and second injections and near saturation of the occupied sites in case of notable dissociation. On a Biacore T200, the first two injections were made using the dual inject mode and the third was made using normal injection mode (the difference is extra time between second and third injections). It is possible that antigens themselves could self-associate or interact with one another in the pre-mixes but for simplicity of interpretation, we assumed that to be unlikely or insignificant.
(§2) Each subsequent upward shift in the signal upon premix injection indicates binding of an antigen to an unoccupied site. Typical % BC for a fully occupied site can range from ˜70% to ˜120% due to matrix effects, MW variations (e.g., glycosylation), fast dissociation, nonspecific binding, reagent quality (e.g., aggregation), etc. The % BC indicated in the figures show good overall binding capacity for the three antigens with somewhat higher % BC for the first binder.

[2] = biological target: T2, Human PD1 (50AFR), [VEGF leader]-Sino-Bio-PD-1_H-[His9G] (human, UniProt Q15116 25-167); experiment: SPR sequential antigen injections on captured TsAb; this antigen injected 2nd
T2 construct: Expressed with a VEGF leader; also called PD-1-His (50AFR)
Protocol: as §1, §2

[3] = biological target: T3, TIGIT-His (87AGX), [SLAM Leader]-TIGIT_H-[His9G] (human, UniProt Q495A1 22-141); experiment: as above
T3 construct: Expressed with a SLAM leader
T3 sequence (looked up): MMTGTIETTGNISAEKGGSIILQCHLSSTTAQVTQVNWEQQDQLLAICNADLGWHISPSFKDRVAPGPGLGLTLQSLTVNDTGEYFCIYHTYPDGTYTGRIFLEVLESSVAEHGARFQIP
Protocol: as §1, §2

[4] = biological target: T2, Human PD1 (50AFR), [VEGF …; experiment: SPR (Biacore T200 or 4000), antibody captured via anti-human Fc, antigen as analyte
Protocol: (§3) Binding affinities were measured using a Biacore T200 or Biacore 4000 biosensor (GE Healthcare, Chicago, Ill.). The following running buffer, 10 mM HEPES, 150 mM NaCl, 0.05% v/v Surfactant P20, 3 mM EDTA (GE Healthcare, BR100669, Chicago, Ill.), was used for immobilization, sample dilution and data collection. All experiments were performed at 25° C. Antigen binding to antibodies captured via an anti-human Fc antibody was measured using a Series S Sensor Chip CM5 (GE Healthcare, 29149603, Chicago, Ill.). An anti-human Fc antibody was immobilized on all surfaces of the chip according to the instructions in the Human Antibody Capture Kit (GE Healthcare, BR100839, Chicago, Ill.) and the Amine Coupling Kit (GE Healthcare, BR100633, Chicago, Ill.). […] After the antigen injections the dissociation of the interaction was monitored for 15 minutes. Between binding cycles the antibody and antigen were removed from the chip with a 30 second injection of 3 M MgCl₂.
(§4) The data were processed and fit using Biacore T200 Evaluation Software version 2.0 or Biacore 4000 Evaluation Software version 1.1 (GE Healthcare, Chicago, Ill.). The data were “double referenced” by subtracting the response from a negative control flowcell and subtracting the response from a buffer injection or the average response from two buffer injections. The data were then fit with the ‘1:1 Binding’ model to determine the association rate constant, kₐ (M⁻¹s⁻¹, where “M” equals molar and “s” equals seconds) and the dissociation rate constant, kd (s⁻¹). These rate constants were used to calculate the equilibrium dissociation constant, KD (M)=[…].

human LAG-3 (60AXE) = biological target: T4, human LAG-3 (60AXE) (human, UniProt P18627 23-450, limits assumed); experiment: as above
T4 construct: Lot 60AXE is not described further
T4 sequence (looked up): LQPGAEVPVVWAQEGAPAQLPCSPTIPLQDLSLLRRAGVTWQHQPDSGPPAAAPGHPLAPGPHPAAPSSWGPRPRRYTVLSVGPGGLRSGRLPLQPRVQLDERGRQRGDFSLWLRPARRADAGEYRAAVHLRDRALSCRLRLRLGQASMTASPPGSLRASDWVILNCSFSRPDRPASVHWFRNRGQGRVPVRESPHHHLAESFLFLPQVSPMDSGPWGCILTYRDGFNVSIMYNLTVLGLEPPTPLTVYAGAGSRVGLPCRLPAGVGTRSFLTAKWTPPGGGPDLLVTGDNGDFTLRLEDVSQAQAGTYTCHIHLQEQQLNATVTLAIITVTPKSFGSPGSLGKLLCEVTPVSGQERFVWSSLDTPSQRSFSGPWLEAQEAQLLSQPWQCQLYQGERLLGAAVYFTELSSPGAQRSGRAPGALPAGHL
Protocol: as §3, §4

human TIGIT (94AGV) = biological target: T5, human TIGIT (94AGV) (human, UniProt Q495A1 22-141, limits assumed); experiment: as above
T5 construct: Lot 94AGV is not described further
T5 sequence (looked up): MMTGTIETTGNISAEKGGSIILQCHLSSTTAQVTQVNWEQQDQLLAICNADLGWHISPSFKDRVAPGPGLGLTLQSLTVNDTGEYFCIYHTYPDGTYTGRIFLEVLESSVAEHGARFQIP
Protocol: as §3, §4

[5] = biological target: T6, recombinant human or cyno PD-1 (immobilized onto CM5 chip, Example 1) (human or cyno ( which was …, UniProt Q15116 25-167, limits assumed)); experiment: SPR (Biacore T200), PD-1 immobilized on CM5 chip, Fab as analyte; lower end of the printed range 2.80-2.90
T6 construct: also called antigen
Protocol: (§5) Immobilization of recombinant human or cyno PD-1 onto CM5 chip: A CM5 sensor chip was activated in FC2 by 7-min. injection (10 μl/min.) of freshly prepared 1:1 50 mM NHS: 200 mM EDC. PD-1 at a concentration of 0.2 μg/ml in 10 mM sodium acetate buffer pH 5.0 was injected onto the activated chip at 5 μl/min. (HBS-EP running buffer: 10 mM HEPES, 150 mM NaCl, 3.4 mM EDTA, 0.005% surfactant P20, pH 7.4) for 120 seconds. The remaining active coupling sites were blocked with 7 min. injection of 1M ethanolamine at 10 μl/min.
(§6) Binding kinetics measurement: Various concentrations of the Fabs were injected with a flow rate of 30 μl/min for 180 seconds(s) during the association phase. The dissociation of bound antibody was monitored by flowing HBS-EP buffer over the chip surface for 600 seconds. At the end of each cycle, the sensor surfaces were regenerated by injecting regeneration buffer (10 mM glycine buffer with pH 1.7) for 180 seconds. After sensograms were corrected for signals from a reference flow, kinetics were calculated with BIACORE T 200 evaluation software ver.1.0 (Biacore, GE, USA).

[6] = biological target: T6, recombinant human or cyno PD-1 …; experiment: SPR (Biacore), Fab against PD-1
Protocol: as §5, §6

T6 sequence (Q15116 25-167 limits assumed): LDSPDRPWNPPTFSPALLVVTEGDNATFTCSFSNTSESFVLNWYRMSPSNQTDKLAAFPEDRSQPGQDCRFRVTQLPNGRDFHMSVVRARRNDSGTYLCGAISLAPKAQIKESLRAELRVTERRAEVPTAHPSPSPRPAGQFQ
T2 sequence (Q15116 25-167): as the sequence (Q15116 25-167 limits assumed) above

B1: Anti-PD-1/LAG-3/TIGIT trispecific antibody (TsAb) (Lot 83BCN or 51AVW) (other)
heavy 1: EVQLVQSGAEVKKPGASVKVSCKASGYTFTSYYLYWVRQAPGQGLEWIGGVNPSNAGTNFNEKFKSRVTLTVDTSISTAYMELSRLRSDDTAVYYCTRRLSHYDGGFDYWGQGTTVTVSSASTKGPSVFPLAPSSKSTSGGTAALGCEVTDYFPEPVTVSWNSGALTSGVHTFPAVLESSGLYSLLSVVTVPSSSLGTQTYICNVNHKPSNTKVDKKVEPKSCDKTHTCPPCPAPEAAGGPSVFLFPPKPKDTLMISRTPEVTCVVVSVSHEDPEVKFNWYVDGVEVHNAKTKPREEQYNSTYRVVSVLTVLHQDWLNGKEYKCKVSNKALPAPIEKTISKAKGQPREPQVYVYPPSRDELTKNQVSLTCLVKGFYPSDIAVEWESNGQPENNYKTTPPVLDSDGSFALVSKLTVDKSRWQQGNVFSCSVMHEALHNHYTQKSLSLSPGGGGSGGGSGGGSGGGSDIQMTQSPSSLSASVGDRVTITCRASEHIYSYLSWYQQKPGKVPKLLIYNAKTLAEGVPSRFSGSGSGTDFTLTISSLQPEDVATYYCQHHFGSPLTFGQGTRLEIKGGSSRSSSSGGGGSGGGGSGSEVQLVQSGAEVKKPGSSVKVSCKASGYTFSSYVMHWVRQAPGQGLEWIGYIDPYNDGAKYAQKFQGRVTLTSDKSTSTAYMELSSLRSEDTAVYYCARGGPYGWYFDVWGQGTTVTVSS
light 1: DIVMTQTPLSLSVTPGQPASISCRASKSVSTSGFSYLHWYLQKPGQPPQLLIFLSKYRSSGVPDRFSGSGSGTDFTLKISRVEAEDVGVYYCSQAYHLPLTFGQGTKLEIKRTVAAPSVFIFPPSDERLKSGTASVVCLLNNFYPREAKVQWKVDNALQSGNSQESVTEQDSKDSTYSLSSRLTLSKADYEKHKVYACEVTHQGLSSPVTKSFNRGEC
heavy 2: QMQLVQSGPEVKKPGTSVKVSCKASGYTFTDYNVDWVRQARGQRLEWIGDINPNDGGTIYAQKFQERVTITVDKSTSTAYMELSSLRSEDTAVYYCARNYRWFGAMDHWGQGTTVTVSSASTKGPSVFPLAPSSKSTSGGTAALGCLVKDYFPEPVTVSWNSGALTSGVHTFPAVLQSSGLYKLSSVVTVPSSSLGTQTYICNVNHKPSNTKVDKKVEPKSCDKTHTCPPCPAPEAAGGPSVFLFPPKPKDTLMISRTPEVTCVVVSVSHEDPEVKFNWYVDGVEVHNAKTKPREEQYNSTYRVVSVLTVLHQDWLNGKEYKCKVSNKALPAPIEKTISKAKGQPREPQVYVLPPSRDELTKNQVSLLCLVKGFYPSDIAVEWESNGQPENNYLTWPPVLDSDGSFFLYSKLTVDKSRWQQGNVFSCSVMHEALHNHYTQKSLSLSPGGGGSGGGSGGGSGGGSDIQMTQSPSSLSASVGDRVTITCRASEHIYSYLSWYQQKPGKVPKLLIYNAKTLAEGVPSRFSGSGSGTDFTLTISSLQPEDVATYYCQHHFGSPLTFGQGTRLEIKGGSSRSSSSGGGGSGGGGSGSEVQLVQSGAEVKKPGSSVKVSCKASGYTFSSYVMHWVRQAPGQGLEWIGYIDPYNDGAKYAQKFQGRVTLTSDKSTSTAYMELSSLRSEDTAVYYCARGGPYGWYFDVWGQGTTVTVSS
light 2: DIVMTQTPLSLSVTPGQPASISCKASQSLDYEGDSDMNWYLQKPGQPPQLLIYGASNLESGVPDRFSGSGSGTDFTLKISRVEAEDVGVYYCQQSTEDPRTFGGGTKVEIKRTVAAPSVFIFPPSDEELKSGTATVVCLLNNFYPREAKVQWKVDNALQSGNSQESVTEQDSKDSTYSLSSYLELSKADYEKHKVYACEVTHQGLSSPVTKSFNRGEC
notes: Trispecific heterodimeric IgG1 / kappa; It has one site for PD1, one for LAG3 and two for TIGIT; also called Hz x Hu [PD-1]; [TIGIT]; [LAG3]; TsAb; Anti-human PD1/TIGIT/LAG3 TsAb
% BC (estimated % binding capacity) [1]: 102%
% BC (estimated % binding capacity) [2]: 74%
% BC (estimated % binding capacity) [3]: 90%
Kd [4]: 0.15 nM
Kd (human LAG-3 (60AXE)): 0.0015 nM
Kd (human TIGIT (94AGV)): 0.64 nM

B2: Fab001 (humanized 08A Fab with S61N glycosylation site correction) (Fab, V domains shown)
VH: EVQLVQSGAEVKKPGASVKVSCKASGYTFTSYYLYWVRQAPGQGLEWIGGVNPSNGGTNFNEKFKSRVTLTVDTSISTAYMELSRLRSDDTAVYYCTRRDSNYDGGFDYWGQGTTVTVSS
VL: DIVMTQTPLSLSVTPGQPASISCRASKSVSTSGFSYLHWYLQKPGQPPQLLIFLASNLESGVPDRFSGSGSGTDFTLKISRVEAEDVGVYYCQHSWELPLTFGQGTKLEIKR
notes: Fab with IgG4 CH1 and kappa light chain
Kd [5]: 0.28 to 0.29 nM

B3: Fab 004 (Fab, V domains shown)
VH: EVQLVQSGAEVKKPGASVKVSCKASGYTFTSYYLYWVRQAPGQGLEWIGGVNPSNGGTNFNEKFKSRVTLTVDTSISTAYMELSRLRSDDTAVYYCTRRLSHYDGGFDYWGQGTTVTVSS
VL: DIVMTQTPLSLSVTPGQPASISCRASKSVSTSGFSYLHWYLQKPGQPPQLLIFLASNLESGVPDRFSGSGSGTDFTLKISRVEAEDVGVYYCQHSWELPLTFGQGTKLEIKR
notes: also called 3G9; H3G9
fold improvement in KD over 08A [6]: 2 fold
